Results: article PMC9860126, “Mechanistic insights into the nickel-dependent allosteric response of the Helicobacter pylori NikR transcription factor”
Positions count from the first letter of the chain named.

B1: ureA promoter 32 bp (FA) (dsDNA)
DNA 1: ATATAACACTAATTCATTTTAAATAATAATTA
DNA 2: TAATTATTATTTAAAATGAATTAGTGTTATAT
B2: ureA-perf promoter 32 bp (dsDNA)
DNA 1: B1 DNA 1 with A6T, C7T, C9T
DNA 2: B1 DNA 2 with G24A, G26A, T27A

What was measured:
HpNikR E56A [1] = target: T1, HpNikR E56A (Helicobacter pylori G27, UniProt A1YSQ9 1-148, E56A); experiment: fluorescence anisotropy; apo (no Ni); FA: 5 nM DNA, 20 mM Tris pH 7.6, 100 mM NaCl, 3 mM MgSO4, temperature not stated (Ni loading 1.2 eq NiSO4 per monomer at RT). EMSA: 20 mM Tris pH 7.5, 100 mM KCl, 3 mM MgCl2, 0.1% IGEPAL, 5% glycerol, 0.1 mg/ml herring sperm DNA, RT; gel with 800 uM NiSO4 at 4 C; details: protein: recombinant; tags: none stated; chain copies: 4; label: fluorescein on internal thymine (T14 of strand 1); blunt
HpNikR E62A = HpNikR E62A (Helicobacter pylori G27, UniProt A1YSQ9 1-148, E62A); experiment: fluorescence anisotropy; Ni(II)-bound; FA: 5 nM DNA, 20 mM Tris pH 7.6, 100 mM NaCl, 3 mM MgSO4, temperature not stated (Ni loading 1.2 eq NiSO4 per monomer at RT). EMSA: 20 mM Tris pH 7.5, 100 mM KCl, 3 mM MgCl2, 0.1% IGEPAL, 5% glycerol, 0.1 mg/ml herring sperm DNA, RT; gel with 800 uM NiSO4 at 4 C; details: protein: recombinant; tags: none stated; chain copies: 4; label: fluorescein on internal thymine (T14 of strand 1); blunt
HpNikR N32A = HpNikR N32A (Helicobacter pylori G27, UniProt A1YSQ9 1-148, N32A); experiment: as above; details: protein: recombinant; tags: none stated; chain copies: 4; label: fluorescein on internal thymine (T14 of strand 1); blunt
HpNikR E56A [2] = target: T1, HpNikR E56A; experiment: as above; details: protein: recombinant; tags: none stated; chain copies: 4; label: fluorescein on internal thymine (T14 of strand 1); blunt
HpNikR T92A = HpNikR T92A (Helicobacter pylori G27, UniProt A1YSQ9 1-148, T92A); experiment: as above; details: protein: recombinant; tags: none stated; chain copies: 4; label: fluorescein on internal thymine (T14 of strand 1); blunt
HpNikR I127A = HpNikR I127A (Helicobacter pylori G27, UniProt A1YSQ9 1-148, I127A); experiment: as above; details: protein: recombinant; tags: none stated; chain copies: 4; label: fluorescein on internal thymine (T14 of strand 1); blunt
HpNikR Q81A = HpNikR Q81A (Helicobacter pylori G27, UniProt A1YSQ9 1-148, Q81A); experiment: as above; details: protein: recombinant; tags: none stated; chain copies: 4; label: fluorescein on internal thymine (T14 of strand 1); blunt
HpNikR WT = target: T2, HpNikR WT (Helicobacter pylori G27 (from vector …, UniProt A1YSQ9 1-148)); experiment: as above; details: protein: recombinant; tags: none stated (untagged purification); chain copies: 4; label: fluorescein on internal thymine (T14 of strand 1); blunt
T2 sequence: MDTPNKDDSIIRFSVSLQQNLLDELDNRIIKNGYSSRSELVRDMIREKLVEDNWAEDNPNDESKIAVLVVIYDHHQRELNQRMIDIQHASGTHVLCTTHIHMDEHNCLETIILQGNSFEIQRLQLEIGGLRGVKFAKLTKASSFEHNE

HpNikR GGS = HpNikR GGS (Helicobacter pylori G27, UniProt A1YSQ9 1-148, P59G;N60G;D61S); experiment: as above; details: protein: recombinant; tags: none stated; chain copies: 4; label: fluorescein on internal thymine (T14 of strand 1); blunt
HpNikR K31A = HpNikR K31A (Helicobacter pylori G27, UniProt A1YSQ9 1-148, K31A); experiment: as above; details: protein: recombinant; tags: none stated; chain copies: 4; label: fluorescein on internal thymine (T14 of strand 1); blunt

Row | Binder | Kd (HpNikR E56A [1]) | Kd (HpNikR E62A) | Kd (HpNikR N32A) | Kd (HpNikR E56A [2]) | Kd (HpNikR T92A) | Kd (HpNikR I127A) | Kd (HpNikR Q81A) | Kd (HpNikR WT) | Kd (HpNikR GGS) | Kd (HpNikR K31A)
1 | B1 | 1800 ± 300 nM | 10.1 ± 1.1 nM | 4.8 ± 0.9 nM | 5.4 ± 0.1 nM | 3.6 ± 0.2 nM | 8.7 ± 1.3 nM | 6.5 ± 1 nM | 4.5 ± 0.6 nM | 4.6 ± 1.2 nM | 6.8 ± 1 nM
2 | B2 | 1200 ± 100 nM | 2.9 ± 0.9 nM | 1.3 ± 0.4 nM | 5.9 ± 0.8 nM | 2.6 ± 0.5 nM | – | 3.9 ± 1.4 nM | 4.7 ± 0.4 nM | – | 4.1 ± 1 nM
